Biological target: receptor binding domain (RBD) of the SARS-CoV-2 S protein (SARS-CoV-2, UniProt P0DTC2)
Experiment: ELISA

B1: recombinant fragment of human surfactant protein D (rfhSP-D) (domain or fragment)
chain: PGLKGDKGIPGDKGAKGESGLPDVASLRQQVEALQGQVQHLQAAFSQYKKVELFPNGQSVGEKIFKTAGFVKPFTEAQLLCTQAGGQLASPRSAAENAALQQLVVAKNEAAFLSMTDSKTEGKFTYPTGESLVYSNWAPGEPNDDGGSEDCVEIFTNGKWNDRACGEKRLVVCEF
In the case of B1, the “percent decrease of RBD-hACE-2 interaction (rfhSP-D increased 8-fold)” value is reported as about 25%.

Source: article doi:10.1101/2020.12.18.423415 (bioRxiv, 2020)
